Results published in PMC6445123 (Scientific Reports, 2019).
Changes are numbered by the printed parent chain. In names and notes the source's numbering stands. Marks after values point to notes of the source that are not given here. One block for each molecule: values may come before it.

Tests used:
[1] = molecular target: T1, recombinant active Casp6 (Casp6-WT) (Homo sapiens, UniProt P55212, INS179NQTEKLDTNITEVD); experiment: Fluorescence-based Ac-VEID-AFC cleavage assay (Casp6 activity, IC50 determination); assay type: biochemical; conditions: for % Inhibition with 100 µM compound (fluorescence assay) / IC50: 10 µM Ac-VEID-AFC; for % Inhibition with 100 µM compound (fluorescence assay): 20 nM Casp6, relative to 1% DMSO control; for fold increase in IC50 (reduction in potency) compared to C13: Casp6-WT; for IC50: fluorescence assay, 20 nM Casp6 active sites, read-out: IC50
T1 construct: generating mainly large subunit with a linker (LS-L), small subunit (SS), and a minor amount of large subunit (LS); His (C); made in house; host or cells: E. coli BL21(DE3)pLysS
T1 sequence (P55212 24-193 limits assumed): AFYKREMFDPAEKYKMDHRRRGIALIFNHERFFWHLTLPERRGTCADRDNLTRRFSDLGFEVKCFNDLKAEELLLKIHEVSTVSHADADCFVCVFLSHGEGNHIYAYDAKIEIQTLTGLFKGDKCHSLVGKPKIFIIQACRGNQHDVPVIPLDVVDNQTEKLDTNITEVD
T1 sequence (P55212 194-293 limits assumed): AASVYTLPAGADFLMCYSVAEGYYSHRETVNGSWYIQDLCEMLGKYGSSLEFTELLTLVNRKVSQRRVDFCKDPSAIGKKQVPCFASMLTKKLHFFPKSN
Experimental: To assess the potency of in silico hits, a fluorescence-based Ac-VEID-AFC cleavage assay was used to measure recombinant active Casp6 reaction rate in the absence or presence of 100 µM concentration of compounds. A 30% inhibition cut off was arbitrarily chosen for further investigation of putative inhibitors. […] AFC signal interference by compound intrinsic fluorescence was ruled out (Fig. S4). Casp6 inhibition was confirmed for seven compounds (C7, C13, C14, S2, S10, S11 and S13) using a colorimetric Ac-VEID-pNA cleavage assay (Table 2, Fig. S3).
(§1) Casp6 active sites were quantified using zVAD-FMK (N-benzyloxycarbonyl-Val-Ala-Asp-(O-methyl)-fluoromethylketone, MP Biomedicals, Santa Ana, CA, USA)[51],[64]. Casp6 activity was measured in Stennicke’s buffer (SB: 20 mM piperazine-N,N′-bis-(2-ethanesulfonic acid) pH 7.2, 100 mM NaCl, 10 mM DTT, 1 mM EDTA, 0.1% 3-[(3-cholamidopropyl)-dimethylammonio]-2-hydroxy-1-propanesulfonic acid, 10% sucrose)[65] using 40 µM Ac-VEID-AFC (Ac-Val-Glu-Ile-Asp-7-Amino-4-trifluoromethylcoumarin, Enzo Life Sciences, Farmingdale, NY, USA)[64] and 10-250 nM active site titrated Casp6. Reactions were initiated by Ac-VEID-AFC addition and followed for 20 min at 37 °C in a black clear bottom 96-well microplate (Costar, Corning, NY, USA) in Synergy H4 Hybrid instrument (BioTek, Winooski, VT, USA) with excitation/emission at 380/505 nm. Released AFC was calculated from AFC standard curve (0-25 µM). Casp6 VEIDase activity (released pmol AFC/min) was calculated from the initial linear reaction part. Ac-VEID-AFC hydrolysis initial velocities were measured with 10 nM active-site titrated Casp6 and […] Ac-VEID-AFC. Initial velocities v versus substrate concentration [S] were fit to a rectangular hyperbola using Michaelis-Menten equation in GraphPad Prism 5 (GraphPad Software, La Jolla, CA, USA).
In fluorescence-based Casp6 activity assay, 10 µM Ac-VEID-AFC was added to 20 nM Casp6 in SB with 100 μM compound and 1% dimethyl sulfoxide (DMSO), and reaction rate was measured for 20 min at 37 °C as above. Compound potency was calculated by normalising Ac-VEID-AFC cleavage rate to 1% DMSO control. In colorimetric Casp6 activity assay, 200 µM Ac-VEID-pNA (N-acetyl-Val-Glu-Ile-Asp-p-nitroanilide, Enzo Life Sciences) was added to 200 nM Casp6 in SB with 100 μM compound, and Ac-VEID-pNA cleavage rate was measured at 37 °C for 30 min in clear 96-well plate (Sartstedt, Nümbrecht, Germany) using Synergy H4 plate reader at 405 nm. Absorbance was converted to the released pNA amount based on a standard curve of 0–250 µM pNA. Cleavage rates were calculated from the linear assay phase and were normalised to 1% DMSO control. In Casp6-C163A cleavage assay, 0.5 ng/µl Casp6-WT was preincubated with 100 µM inhibitor, 5 µM Q-VD-OPh or 1% DMSO in SB (30 min, RT), followed by transfer on ice, addition of 0.5 µg/µl Casp6-C163A, and incubation (37 °C, 5, 10 and 15 min). Reactions were stopped by adding SDS-PAGE sample buffer (62.5 mM Tris pH 6.8, 2% SDS, 0.1 M DTT, 0.01% Bromphenol Blue, 10% glycerol) and heating (5 min, 95 °C). Samples (2 µl) were analysed on 15% SDS-PAGE gels, proteins were stained with Coomassie blue, and gels were de-stained with 10% acetic acid. The intensities of protein bands were quantified from scanned gels using ImageJ. The band intensity of Casp6-C163A without a prodomain was plotted against the time and the Casp6-C163A cleavage rates were calculated from the slopes of linear plots. The % activity of Casp6-WT in the presence of inhibitors was calculated relative to DMSO control.
IC50 values were determined against 20 nM Casp6 active sites in fluorescence-based Casp6 activity assay with 10 µM Ac-VEID-AFC and 1 nM-500 µM inhibitor. IC50 was calculated with GraphPad Prism 5 by a nonlinear regression fit for log inhibitor vs relative Casp6 activity (% DMSO control) using a Hill slope of – 1, and top and bottom constraints of 100 and 0, respectively.

[2] = Ac-VEID-AFC hydrolysis kinetics of recombinant Casp6 variants (Michaelis-Menten); assay type: biochemical, human; conditions: for Km / kcat: Ac-VEID-AFC hydrolysis, mean ± SD
Description: In this study, we investigated how naturally occurring rare missense variants of human CASP6 affect Casp6 activity and structure. […] A34, E35, A109, and T182 are not conserved in 12 human caspases and in Casp6 from different species (Fig. 1a,b). Recombinant Casp6-WT and the four variants were expressed in E. coli, purified, and active site titrated (Fig. S2) for functional analyses. Like Casp6-WT, Casp6 variants, underwent complete self-processing at TETD23, and TEVD193 sites, and slight self-cleavage at the DVVD179 site, generating mainly large subunit with a linker (LS-L), small subunit (SS), and a minor amount of large subunit (LS) (Fig. 1c,d).
as §1

- % Inhibition with 100 µM compound (fluorescence assay) [1]: 55.5 ± 8.8^a %
- fold increase in IC50 (reduction in potency) compared to C13 [1]: 2 fold
- IC50 [1]: 21.5 ± 2 µM
- potency for Casp6 of in-house synthesised compound compared to commercial compound ([1]; synthesised in the authors' laboratory vs commercial source): lower potency
Molecule: COC(=O)c1cc(CNC(=O)c2cc(C)cc(C)c2)cc(NC(=O)c2ccco2)c1 [Compound C13G]

- potency against Casp6 (in words) [1]: low potency
- % Inhibition with 100 µM compound (fluorescence assay) [1]: −8.3 ± 1.7^a %
Molecule: COC(=O)c1cc(CNC(=O)C(C)(C)C)cc(NC(=O)c2ccco2)c1 [Compound C13E]

- potency against Casp6 (in words) [1]: low potency
- % Inhibition with 100 µM compound (fluorescence assay) [1]: 2.3 ± 3.1^a %
Molecule: COC(=O)c1cc(CN)cc(NC(=O)c2ccco2)c1 [Compound C13B]

- % Inhibition with 100 µM compound (fluorescence assay) [1]: 5.5 ± 4.1^a %
- fold increase in IC50 (reduction in potency) compared to C13 [1]: 155 fold
Molecule: COC(=O)c1cc(CNC(=O)c2c(-c3ccccc3)noc2C)cc(NC(=O)c2ccco2)c1 [Compound C13D]

- % Inhibition with 100 µM compound (fluorescence assay) [1]: 43.2 ± 10.9^a %
- fold increase in IC50 (reduction in potency) compared to C13 [1]: 2 fold
- IC50 [1]: 27 ± 1.6 µM
Molecule: COC(=O)c1cc(CNC(=O)C2(c3ccc(Cl)cc3)CCC2)cc(NC(=O)c2ccco2)c1 [Compound C13F]

B1: Casp6-E35K: recombinant rare natural human Casp6 missense variant E35K (protein)
chain 1: T1 sequence (P55212 24-193 limits assumed) with E12K
chain 2: T1 sequence (P55212 194-293 limits assumed)
modifications: left off: His (from the plasmid name pET23b-Casp6-His), end not stated, state not stated
- fold reduced catalytic efficiency kcat/KM compared with Casp6-WT [2]: ~ 2 fold
- Km [2]: 37.1 ± 4.9 µM
- kcat [2]: 1.71 ± 0.13 s⁻¹

B2: Casp6-A109T: recombinant rare natural human Casp6 missense variant A109T (protein)
chain 1: T1 sequence (P55212 24-193 limits assumed) with A86T
chain 2: T1 sequence (P55212 194-293 limits assumed)
modifications: left off: His (from the plasmid name pET23b-Casp6-His), end not stated, state not stated
- Km [2]: 34.5 ± 1.8 µM
- kcat [2]: 2.51 ± 0.16 s⁻¹

B3: Casp6-L200A: Casp6 L200A alanine mutant from full-length construct, poorly self-processed (protein, UniProt P55212 1-293, looked up, variant L200A)
chain: MSSASGLRRGHPAGGEENMTETDAFYKREMFDPAEKYKMDHRRRGIALIFNHERFFWHLTLPERRGTCADRDNLTRRFSDLGFEVKCFNDLKAEELLLKIHEVSTVSHADADCFVCVFLSHGEGNHIYAYDAKIEIQTLTGLFKGDKCHSLVGKPKIFIIQACRGNQHDVPVIPLDVVDNQTEKLDTNITEVDAASVYTAPAGADFLMCYSVAEGYYSHRETVNGSWYIQDLCEMLGKYGSSLEFTELLTLVNRKVSQRRVDFCKDPSAIGKKQVPCFASMLTKKLHFFPKSN
modifications: full-length
notes: Casp6 L200A alanine mutant from full-length construct, poorly self-processed
- fold higher KM compared to Casp6-WT or Casp6-WT-LS-SS [2]: 10 fold
- fold reduction in kcat compared to Casp6-WT [2]: 45 fold
- Km [2]: 316 ± 162 µM
- kcat [2]: 0.05 ± 0.03 s⁻¹

B4: Casp6-K284A-LS-SS: fully processed Casp6 K284A from co-expression of large and small subunits (protein, UniProt P55212 1-293, looked up, variant K284A)
chain: B3 chain with A200L, K284A
- Km [2]: 27.7 ± 2.7 µM
- kcat [2]: 2.8 ± 0.2 s⁻¹

B5: Casp6-T182S: recombinant rare natural human Casp6 missense variant T182S (protein, UniProt P55212 1-293, looked up, variant T182S)
chain: B3 chain with T182S, A200L
- Km [2]: 33.3 ± 1.2 µM
- kcat [2]: 2.42 ± 0.12 s⁻¹

B6: Casp6-A34E: recombinant rare natural human Casp6 missense variant A34E (protein, UniProt P55212 1-293, looked up, variant A34E)
chain: B3 chain with A34E, A200L
- Km [2]: 22.7 ± 0.8 µM
- kcat [2]: 2.04 ± 0.10 s⁻¹

B7: Casp6-L200A-LS-SS: fully processed Casp6 L200A from co-expression of large and small subunits (protein, UniProt P55212 1-293, looked up, variant L200A)
chain: B3 chain
- fold higher KM compared to Casp6-WT or Casp6-WT-LS-SS [2]: 8 fold
- Km [2]: 196 ± 84.4 µM
- kcat [2]: 2.8 ± 0.8 s⁻¹

B8: Casp6-WT: recombinant wild-type human Casp6 expressed in E. coli from full-length construct (protein, UniProt P55212 1-293, looked up)
chain: B3 chain with A200L
modifications: full-length
notes: recombinant wild-type human Casp6 expressed in E. coli from full-length construct
- Km [2]: 31.2 ± 6.7 µM
- kcat [2]: 2.27 ± 0.30 s⁻¹
